Experimental data taken from the supplement of paper PMC10065799, “High-throughput profiling of sequence recognition by tyrosine kinases and SH2 domains using bacterial peptide display” (eLife, 2023).

Legend:
[1] = target: c-Src SH2; experiment: SH2 binding enrichment of the phosphorylated peptide, bacterial display (enrichment ratio); higher = better substrate or ligand; peptides without Tyr show the background
[2] = target: Grb2 SH2 (UniProt P62993); experiment: as above
[3] = target: SHP2-C SH2; experiment: as above
[4] = target: MERTK (UniProt Q12866); experiment: phosphorylation enrichment, bacterial display (enrichment ratio); higher = better substrate or ligand; peptides without Tyr show the background
Chain of MERTK (Q12866 whole entry, looked up): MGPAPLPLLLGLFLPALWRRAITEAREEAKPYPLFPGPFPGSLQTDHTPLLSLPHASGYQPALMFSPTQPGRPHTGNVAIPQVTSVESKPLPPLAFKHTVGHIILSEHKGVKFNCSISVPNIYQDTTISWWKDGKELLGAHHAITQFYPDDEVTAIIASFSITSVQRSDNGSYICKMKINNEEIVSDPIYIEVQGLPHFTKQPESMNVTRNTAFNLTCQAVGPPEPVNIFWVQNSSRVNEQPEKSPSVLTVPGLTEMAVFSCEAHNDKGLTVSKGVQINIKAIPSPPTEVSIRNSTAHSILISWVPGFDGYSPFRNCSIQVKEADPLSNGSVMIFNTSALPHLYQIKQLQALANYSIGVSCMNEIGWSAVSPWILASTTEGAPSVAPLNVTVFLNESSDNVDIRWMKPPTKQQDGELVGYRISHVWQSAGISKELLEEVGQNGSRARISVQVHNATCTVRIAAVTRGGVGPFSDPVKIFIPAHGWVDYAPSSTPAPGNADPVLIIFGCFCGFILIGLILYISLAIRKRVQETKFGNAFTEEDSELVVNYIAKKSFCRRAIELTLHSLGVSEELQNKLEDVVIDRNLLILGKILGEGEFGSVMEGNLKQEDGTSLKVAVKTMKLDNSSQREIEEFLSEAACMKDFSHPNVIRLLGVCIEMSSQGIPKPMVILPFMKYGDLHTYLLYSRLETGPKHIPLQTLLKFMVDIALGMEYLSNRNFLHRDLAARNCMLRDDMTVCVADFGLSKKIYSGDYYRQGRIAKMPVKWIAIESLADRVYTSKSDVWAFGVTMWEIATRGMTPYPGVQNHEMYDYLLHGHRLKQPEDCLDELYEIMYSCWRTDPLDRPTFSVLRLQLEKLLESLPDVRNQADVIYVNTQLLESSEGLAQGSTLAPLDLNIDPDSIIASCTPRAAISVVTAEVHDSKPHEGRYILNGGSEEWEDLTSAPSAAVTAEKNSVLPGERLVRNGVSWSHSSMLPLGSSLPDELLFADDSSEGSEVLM

[5] = target: Hck (UniProt P08631); experiment: as above
[6] = system: AncSZ; experiment: as above
[7] = target: EPHB2 (UniProt P29323); experiment: as above
Chain of EPHB2 (P29323 whole entry, looked up): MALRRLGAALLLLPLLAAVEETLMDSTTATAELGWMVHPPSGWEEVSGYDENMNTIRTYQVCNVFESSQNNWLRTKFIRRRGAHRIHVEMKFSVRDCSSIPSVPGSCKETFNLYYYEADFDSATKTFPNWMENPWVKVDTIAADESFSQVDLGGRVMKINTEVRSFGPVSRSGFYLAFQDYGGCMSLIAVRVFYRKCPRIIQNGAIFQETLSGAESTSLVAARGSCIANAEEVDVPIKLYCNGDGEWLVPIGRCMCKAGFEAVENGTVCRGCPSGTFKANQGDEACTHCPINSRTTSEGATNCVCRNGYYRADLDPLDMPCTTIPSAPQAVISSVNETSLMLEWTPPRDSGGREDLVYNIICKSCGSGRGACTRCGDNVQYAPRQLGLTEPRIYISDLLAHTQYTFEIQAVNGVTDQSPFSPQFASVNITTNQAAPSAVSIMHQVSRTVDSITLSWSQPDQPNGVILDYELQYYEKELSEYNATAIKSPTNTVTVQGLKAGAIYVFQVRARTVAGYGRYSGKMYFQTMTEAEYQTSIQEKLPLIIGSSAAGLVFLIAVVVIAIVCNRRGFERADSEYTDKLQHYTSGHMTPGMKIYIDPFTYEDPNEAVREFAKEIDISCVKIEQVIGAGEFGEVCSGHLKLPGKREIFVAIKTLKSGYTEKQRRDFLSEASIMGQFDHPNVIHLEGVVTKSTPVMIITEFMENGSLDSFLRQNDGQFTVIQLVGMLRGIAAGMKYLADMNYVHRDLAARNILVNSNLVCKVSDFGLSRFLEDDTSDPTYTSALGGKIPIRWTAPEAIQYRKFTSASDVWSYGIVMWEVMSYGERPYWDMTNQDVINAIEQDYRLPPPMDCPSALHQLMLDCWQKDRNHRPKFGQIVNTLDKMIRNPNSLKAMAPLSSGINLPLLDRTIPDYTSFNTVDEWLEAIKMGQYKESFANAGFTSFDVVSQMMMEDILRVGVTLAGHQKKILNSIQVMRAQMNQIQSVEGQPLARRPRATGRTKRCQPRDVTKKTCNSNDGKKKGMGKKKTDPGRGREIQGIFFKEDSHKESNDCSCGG

[8] = system: c-Abl (mouse); experiment: as above
[9] = target: Fyn (UniProt P06241); experiment: as above
[10] = system: c-Src; experiment: as above
[11] = target: Jak2 (UniProt O60674); experiment: as above
Chain of Jak2 (O60674 whole entry, looked up): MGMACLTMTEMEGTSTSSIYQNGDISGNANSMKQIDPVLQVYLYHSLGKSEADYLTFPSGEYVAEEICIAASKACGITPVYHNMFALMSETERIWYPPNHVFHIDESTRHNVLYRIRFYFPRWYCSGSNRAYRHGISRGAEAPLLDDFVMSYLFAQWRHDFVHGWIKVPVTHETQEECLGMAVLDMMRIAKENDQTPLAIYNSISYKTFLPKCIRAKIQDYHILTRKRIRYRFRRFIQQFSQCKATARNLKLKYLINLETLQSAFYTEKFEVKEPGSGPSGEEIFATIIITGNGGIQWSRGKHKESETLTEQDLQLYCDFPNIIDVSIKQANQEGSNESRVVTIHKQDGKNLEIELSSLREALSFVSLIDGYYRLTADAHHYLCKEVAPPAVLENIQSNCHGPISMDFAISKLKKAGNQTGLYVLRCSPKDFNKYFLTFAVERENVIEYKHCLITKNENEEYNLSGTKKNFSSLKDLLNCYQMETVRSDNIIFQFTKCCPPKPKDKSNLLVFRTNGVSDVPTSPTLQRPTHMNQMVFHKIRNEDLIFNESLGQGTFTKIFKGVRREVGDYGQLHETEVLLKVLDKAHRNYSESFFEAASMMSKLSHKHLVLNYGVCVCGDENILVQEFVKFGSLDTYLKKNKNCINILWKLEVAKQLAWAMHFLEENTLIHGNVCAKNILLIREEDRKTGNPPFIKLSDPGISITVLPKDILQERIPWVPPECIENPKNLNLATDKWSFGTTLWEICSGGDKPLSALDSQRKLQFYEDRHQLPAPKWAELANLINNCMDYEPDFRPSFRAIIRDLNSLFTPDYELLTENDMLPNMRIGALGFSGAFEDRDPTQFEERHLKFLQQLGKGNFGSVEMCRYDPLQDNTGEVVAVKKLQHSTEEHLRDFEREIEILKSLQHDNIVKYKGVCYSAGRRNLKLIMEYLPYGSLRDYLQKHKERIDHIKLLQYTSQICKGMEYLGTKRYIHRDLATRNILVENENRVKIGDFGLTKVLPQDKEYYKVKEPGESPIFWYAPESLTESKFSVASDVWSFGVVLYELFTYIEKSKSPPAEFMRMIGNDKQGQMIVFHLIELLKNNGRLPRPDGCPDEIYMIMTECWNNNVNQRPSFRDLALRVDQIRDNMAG

[12] = target: EPHB1 (UniProt P54762); experiment: as above
[13] = target: FGFR3 (UniProt P22607); experiment: as above
[14] = target: FGFR1 (UniProt P11362); experiment: as above
Chain of FGFR1 (P11362 whole entry, looked up): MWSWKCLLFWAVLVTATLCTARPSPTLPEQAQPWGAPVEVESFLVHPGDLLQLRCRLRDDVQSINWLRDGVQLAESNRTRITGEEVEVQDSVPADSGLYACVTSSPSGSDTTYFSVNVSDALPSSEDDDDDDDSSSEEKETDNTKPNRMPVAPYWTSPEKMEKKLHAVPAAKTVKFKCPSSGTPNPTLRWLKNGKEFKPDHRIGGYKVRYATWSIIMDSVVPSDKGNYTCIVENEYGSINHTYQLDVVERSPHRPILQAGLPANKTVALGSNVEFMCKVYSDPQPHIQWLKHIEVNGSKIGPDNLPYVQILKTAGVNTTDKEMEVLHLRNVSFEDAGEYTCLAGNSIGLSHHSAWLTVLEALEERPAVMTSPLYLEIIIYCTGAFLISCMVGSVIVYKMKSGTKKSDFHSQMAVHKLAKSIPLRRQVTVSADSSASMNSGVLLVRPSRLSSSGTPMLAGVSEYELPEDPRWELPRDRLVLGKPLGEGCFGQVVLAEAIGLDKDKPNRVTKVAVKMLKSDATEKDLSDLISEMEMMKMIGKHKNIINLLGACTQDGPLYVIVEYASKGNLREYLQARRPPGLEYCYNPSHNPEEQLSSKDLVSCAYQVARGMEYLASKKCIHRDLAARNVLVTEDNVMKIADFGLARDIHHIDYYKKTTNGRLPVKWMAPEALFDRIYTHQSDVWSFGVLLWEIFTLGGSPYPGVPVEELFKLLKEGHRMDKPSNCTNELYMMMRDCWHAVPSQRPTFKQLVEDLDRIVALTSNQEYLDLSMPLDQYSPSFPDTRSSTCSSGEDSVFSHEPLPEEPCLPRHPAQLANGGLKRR

[15] = target: Fes (UniProt P07332); experiment: as above
Chain of Fes (P07332 whole entry, looked up): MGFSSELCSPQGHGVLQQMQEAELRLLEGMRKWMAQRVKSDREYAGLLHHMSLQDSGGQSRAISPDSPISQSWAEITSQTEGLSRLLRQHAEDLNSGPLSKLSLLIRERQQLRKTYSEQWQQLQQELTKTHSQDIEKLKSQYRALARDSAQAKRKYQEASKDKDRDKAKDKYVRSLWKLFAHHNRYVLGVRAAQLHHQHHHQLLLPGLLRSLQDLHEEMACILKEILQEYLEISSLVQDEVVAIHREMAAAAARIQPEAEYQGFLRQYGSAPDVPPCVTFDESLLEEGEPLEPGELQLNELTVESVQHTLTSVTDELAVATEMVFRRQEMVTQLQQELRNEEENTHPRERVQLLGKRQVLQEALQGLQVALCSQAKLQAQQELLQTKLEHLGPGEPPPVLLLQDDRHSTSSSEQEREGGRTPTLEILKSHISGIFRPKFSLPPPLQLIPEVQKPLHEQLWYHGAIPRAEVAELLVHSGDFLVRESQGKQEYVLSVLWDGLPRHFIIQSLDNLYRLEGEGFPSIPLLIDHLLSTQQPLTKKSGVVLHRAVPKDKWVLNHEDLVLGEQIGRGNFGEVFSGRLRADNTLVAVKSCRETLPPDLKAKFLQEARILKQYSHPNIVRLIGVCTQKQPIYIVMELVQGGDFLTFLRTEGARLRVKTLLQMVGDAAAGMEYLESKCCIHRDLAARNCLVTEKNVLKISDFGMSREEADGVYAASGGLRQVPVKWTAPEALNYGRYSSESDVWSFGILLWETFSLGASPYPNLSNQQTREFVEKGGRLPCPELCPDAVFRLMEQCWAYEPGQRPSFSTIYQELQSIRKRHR

[16] = system: Fer (mouse); experiment: as above
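For SH2 binding enrichment of the phosphorylated peptide, bacterial display in this document: peptide library displayed on the E. coli surface as eCPX fusions, selected cells deep-sequenced, score is each peptide's frequency after selection divided by its frequency in the input.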
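For phosphorylation enrichment, bacterial display in this document: 11-residue human phosphosite peptides and single-mutation variants displayed on the E. coli surface, counted by deep sequencing, each peptide's frequency after selection divided by its frequency in the unselected input library; frequency after pTyr selection over input frequency; kinase dosed for 20-30% of maximal phosphorylation in three min.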

Chain of Grb2 SH2 (P62993 whole entry, looked up): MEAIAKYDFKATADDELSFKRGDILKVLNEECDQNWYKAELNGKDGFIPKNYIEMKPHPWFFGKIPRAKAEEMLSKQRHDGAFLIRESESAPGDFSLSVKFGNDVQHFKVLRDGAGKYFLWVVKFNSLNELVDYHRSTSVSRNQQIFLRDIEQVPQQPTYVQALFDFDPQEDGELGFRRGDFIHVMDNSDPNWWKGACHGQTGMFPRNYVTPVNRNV

Sequence | SH2 binding enrichment [1] | SH2 binding enrichment [2] | SH2 binding enrichment [3] | phosphorylation enrichment [4] | phosphorylation enrichment [5] | phosphorylation enrichment [6] | phosphorylation enrichment [7] | phosphorylation enrichment [8] | phosphorylation enrichment [9] | phosphorylation enrichment [10] | phosphorylation enrichment [11] | phosphorylation enrichment [12] | phosphorylation enrichment [13] | phosphorylation enrichment [14] | phosphorylation enrichment [15] | phosphorylation enrichment [16]
DGNIDYAEFAK [MCFD2_Y138_Y135N] | 0.443 | 0.801 | 1.04 | 0.51 | 0.673 | 1.24 | 0.545 | 0.757 | 0.804 | 0.646 | 0.987 | 0.498 | 0.62 | 0.595 | 1.2 | 0.445
EVGRVYLFLQP [ITGA2B_Y360] | 0.417 | 0.726 | 0.737 | 0.34 | 0.445 | 1.18 | 0.676 | 0.884 | 0.379 | 0.409 | 1.3 | 0.838 | 0.676 | 0.401 | 1.51 | 0.627
KLFFHYDPKLC [INSR_Y457_N458D] | 0.542 | 0.702 | 0.709 | 0.382 | 0.327 | 1.01 | 0.516 | 0.948 | 0.342 | 0.361 | 0.961 | 0.643 | 0.67 | 0.423 | 1.25 | 0.47
REENGYNTYAS [FGF10_Y161_I156R] | 0.509 | 0.673 | 1.11 | 0.568 | 1.3 | 1.22 | 0.962 | 1.25 | 1.21 | 0.9 | 1.27 | 0.856 | 1.03 | 0.761 | 1.73 | 0.559
NFADPYRQLPF [CTNND2_Y503_Q507P_YF] | 0.612 | 0.728 | 0.817 | 0.417 | 0.659 | 0.732 | 0.58 | 0.638 | 0.587 | 0.642 | 0.62 | 0.432 | 0.652 | 0.661 | 0.728 | 0.46
GDYYCYLAEVA [YWHAG_Y133_R132C] | 0.681 | 0.851 | 0.862 | 7.27 | 4.66 | 5.32 | 14.7 | 5.22 | 4.95 | 4.14 | 6.33 | 13 | 12.3 | 13.5 | 1.64 | 5.61
AEFGLYGAMVR [VSX2_Y222_YF] | 0.42 | 0.783 | 0.816 | 0.674 | 6.05 | 1.07 | 0.719 | 0.678 | 5.3 | 3.61 | 0.868 | 0.741 | 0.715 | 0.538 | 1.21 | 0.828
PANMVYSTVEI [SLAMF7_Y304_T302M] | 0.833 | 0.699 | 0.546 | 8.74 | 9.3 | 1.38 | 3.32 | 6.82 | 10.6 | 8.24 | 0.659 | 3.27 | 2.26 | 2.6 | 1.77 | 20.3
IVWDSYTTNKV [GNB3_Y85] | 0.585 | 0.966 | 0.887 | 0.307 | 0.528 | 1 | 0.559 | 0.718 | 0.546 | 0.359 | 0.895 | 0.675 | 0.635 | 0.501 | 1.2 | 0.519
YIRRDYEACKA [BBS4_Y48_K46R] | 0.514 | 0.48 | 0.917 | 0.435 | 0.509 | 0.765 | 0.685 | 0.64 | 0.572 | 0.706 | 0.75 | 0.897 | 0.578 | 0.633 | 0.807 | 0.426
LNNIIYRVERA [CUX2_Y1470] | 0.558 | 1.13 | 1.62 | 0.43 | 0.738 | 1.48 | 0.958 | 0.864 | 0.936 | 1.33 | 1.22 | 0.87 | 0.816 | 0.825 | 1.34 | 0.748
SQSKGYRPKLF [SIPA1L3_Y1376_G1371S_YF] | 0.528 | 0.852 | 0.498 | 0.458 | 0.41 | 0.503 | 0.32 | 0.478 | 0.417 | 0.435 | 0.5 | 0.415 | 0.42 | 0.433 | 0.549 | 0.368
ARGMEYLAEQK [MST1R_Y1198_G1195S] | 0.524 | 0.741 | 0.603 | 0.435 | 0.46 | 0.807 | 0.47 | 0.599 | 0.491 | 0.381 | 0.77 | 0.488 | 0.826 | 0.39 | 0.914 | 0.384
TMKSHYMELFD [BBS2_Y644_R643H_YF] | 7.06 | 0.824 | 1.48 | 0.893 | 0.601 | 1.1 | 0.582 | 0.572 | 0.51 | 0.431 | 0.772 | 0.764 | 0.72 | 0.708 | 0.966 | 0.547
QEIATYRPLLE [KRT14_Y415_R417P] | 0.422 | 0.647 | 0.64 | 0.504 | 0.674 | 1.02 | 0.65 | 0.922 | 0.961 | 0.705 | 1.04 | 0.791 | 0.834 | 0.78 | 1.24 | 0.643
RFVTRYIFNRE [HLA-DQB1_Y62_YF] | 0.355 | 0.627 | 0.721 | 0.643 | 0.655 | 1.2 | 0.591 | 0.528 | 0.76 | 0.593 | 0.921 | 0.536 | 0.796 | 0.923 | 1.68 | 0.615
